# Experimental data: patent US20030054493A1
# Columns and labels:
# [1] = biological target: Crotalus durissus terrificus (C.d.t.) venom; test: ELISA, venom-coated wells; dilution 1:312,500
# [2] = biological target: Crotalus durissus terrificus (C.d.t.) venom; test: ELISA, venom-coated wells (5 µg/ml); dilution 1:5
# [3] = biological target: Crotalus durissus terrificus (C.d.t.) venom; test: ELISA, venom-coated wells (5 µg/ml); undiluted
# [4] = biological target: Crotalus durissus terrificus (C.d.t.) venom; test: ELISA, venom-coated wells; dilution 1:125
# [5] = biological target: Crotalus durissus terrificus (C.d.t.) venom; test: ELISA, venom-coated wells; dilution printed 1.5
# [6] = biological target: Crotalus durissus terrificus (C.d.t.) venom; test: ELISA, venom-coated wells (5 µg/ml); dilution 1:25
# [7] = biological target: Crotalus durissus terrificus (C.d.t.) venom; test: ELISA, venom-coated wells; dilution 1:625
# [8] = biological target: Crotalus durissus terrificus (C.d.t.) venom; test: ELISA, venom-coated wells; dilution 1:25
# [9] = biological target: Crotalus durissus terrificus (C.d.t.) venom; test: ELISA, venom-coated wells (5 µg/ml); dilution 1:125
# [10] = biological target: Crotalus durissus terrificus (C.d.t.) venom; test: ELISA, venom-coated wells; dilution 1:62,500
# [11] = biological target: Crotalus durissus terrificus (C.d.t.) venom; test: ELISA, venom-coated wells (5 µg/ml); dilution 1:3125
# [12] = biological target: Crotalus durissus terrificus (C.d.t.) venom; test: ELISA, venom-coated wells (5 µg/ml); dilution 1:625
# [13] = biological target: Crotalus durissus terrificus (C.d.t.) venom; test: ELISA, venom-coated wells; dilution 1:3125
substance,measurement,setting,value
preimmune IgY (antibody),ELISA absorbance (absorbance (412 nm filter)),[1],0.01
same,ELISA absorbance,[2],< 0 absorbance
same,ELISA absorbance,[3],0.003 absorbance
same,ELISA absorbance,[4],< 0 absorbance
same,ELISA absorbance,[5],< 0 absorbance
same,ELISA absorbance,[6],0 absorbance
same,ELISA absorbance,[7],< 0 absorbance
same,ELISA absorbance,[8],0.016 absorbance
same,ELISA absorbance,[9],0.003 absorbance
same,ELISA absorbance (absorbance (412 nm filter)),[10],0.001
same,ELISA absorbance,[11],0.002 absorbance
same,ELISA absorbance,[12],0 absorbance
same,ELISA absorbance,[13],< 0 absorbance
